Molecular target: microtubules (polymerized tubulin) (UniProt Q6B856)
Sequence (Q6B856 whole entry, looked up): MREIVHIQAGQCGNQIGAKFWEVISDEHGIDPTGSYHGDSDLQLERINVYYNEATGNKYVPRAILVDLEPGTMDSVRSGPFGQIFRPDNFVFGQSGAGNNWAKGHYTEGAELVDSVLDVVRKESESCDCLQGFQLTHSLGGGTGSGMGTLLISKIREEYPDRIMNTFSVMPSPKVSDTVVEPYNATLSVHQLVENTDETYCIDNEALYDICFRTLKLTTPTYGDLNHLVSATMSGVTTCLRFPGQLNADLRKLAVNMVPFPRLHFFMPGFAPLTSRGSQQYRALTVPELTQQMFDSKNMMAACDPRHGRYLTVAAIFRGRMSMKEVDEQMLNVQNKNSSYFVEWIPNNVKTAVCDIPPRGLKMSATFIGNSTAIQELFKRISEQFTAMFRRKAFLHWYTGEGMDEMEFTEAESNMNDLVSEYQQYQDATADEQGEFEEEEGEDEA

FRAP, t½ of recovery of GFP-tagged full-length G2L3 on MTs in NIH3T3 cells: 14.9 s
B1: GAS2-like 3 (G2L3), full length, GFP-tagged (natural protein)
chain: MQPAIQVWFGEDLPLSPRSPLTPRHGPGLANVCQYDEWIAVRHEATLLPMQEDLSIWLSGLLGIKVKAEKLLEELDNGVLLCQLIDVLQNMVKTCNSEESGNFPMRKVPCKKDAASGSFFARDNTANFLHWCRDIGVDETYLFESEGLVLHKDPRQVYLCLLEIGRIVSRYGVEPPVLVKLEKEIELEETLLNTSGPEDSISIPKSCCRHEELHEAVKHIAEDPPCSCSHRFSIEYLSEGRYRLGDKILFIRMLHGKHVMVRVGGGWDTLQGFLLKYDPCRILQFATLEQKILAFQKGVSNESVPDSPARTPQPPEMNPLSAVNMFQKQNSKPSVPVSIPKSKEKQGRPPGALVPASSLKGGNLGSMSVRSKLPNSPAASSHPKLKSSKGITKKPQAPSNNASSSLASLNPVGKNTSSPALPRTAPCISESPRKCISSPNTPKAKVIPAQNSADLPESTLLPNKCSGKTQPKYLKHNHISSRDNAVSHLAAHSNSSSKCPKLPKANIPVRPKPSFQSSAKMTKTSSKTIATGLGTQSQPSDGAPQAKPVPAQKLKSALNLNQPVSVSSVSPVKATQKSKDKNIVSATKKQPQNKSAFQKTGPSSLKSPGRTPLSIVSLPQSSTKTQTAPKSAQTVAKSQHSTKGPPRSGKTPASIRKPPSSVKDADSGDKKPTAKKKEDDDHYFVMTGSKKPRK

Source: PMC3137072
